Assay results published in the supplement of paper PMC9170038.

System: MS2 coat protein
Test: apparent KD of MS2 coat protein; designed switch direction (-1 OFF switch, 1 ON switch): -1; higher = weaker reporter binding
Summary of the method: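 Stalled E. coli RNA polymerase transcribed designed RNA switches on Illumina chips, which were then titrated with SNAP-549-labelled MS2 coat protein, doubling from 0.7 or 1.5 nM to 3 µM. Steps lasted from 0.8–1.5 h at the lowest concentration to 10–20 min at the highest. The apparent KD is each design's median over clusters of curve-fitted normalised fluorescence.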

[1] = input ligand: microRNA oligo, concentration not stated
[2] = Eterna round: R95, input ligand: FMN 200 uM
[3] = Eterna round: R95, input ligand: microRNA oligo, concentration not stated
[4] = Eterna round: R95, input ligand: none

Sequence | apparent KD of MS2 coat protein [1] [nM] | apparent KD of MS2 coat protein [2] [nM] | apparent KD of MS2 coat protein [3] [nM] | apparent KD of MS2 coat protein [4] [nM] | apparent KD of MS2 coat protein (input ligand: FMN 200 uM) [nM] | apparent KD of MS2 coat protein (input ligand: none) [nM]
ACUUAUAGAGGAUAUACAGUUUAUUACAUGAGGAUCACCCAUGUUCUUCAAUGUAUAUAAGUAGAAGGCUAAGGAA [EX-5 Malc#5] (Eterna round: R96, puzzle: Exclusion 5) | 33.7 |  |  |  |  | 
ACUUAUAGAGGAUAUACAGUUUAUUACAUGAGGAUCACCCAUGUUCUUCAAUGUAUAUAAGUAGAAGGCUAAGGAA [EX-5 Malc#5] (puzzle: Exclusion 5) |  | 132 | 25.2 | 30 |  | 
ACUUAUUGAGGAUAUACAGAUUAUUACAUGAGGAUCACCCAUGUUCUUCAAUGUAUAUAUGUAGAAGGCAGAAGUA [Mat - Exclusion 5 - JL Mod - D14] (Eterna round: R97, puzzle: Exclusion 5) |  |  |  |  | 317 | 88.9
ACUUAUUGAGGAUAUACAUAAAUUUACAUGAGGAUCACCCAUGUUCUUCUAUGUAUAUAUGUAGAAGGCAGAAGAA [JL-ex5-4.31 Malcolm mod] (Eterna round: R97, puzzle: Exclusion 5) |  |  |  |  | 27 | 18.5
ACUUAUUGAGGAUAUACAUAGAUUUACAUGAGGAUCACCCAUGUUCCUCUAUGUAUAUAUGUAGAAGGCAGAAGAA [JL-ex5-4.32 Malcolm mod] (Eterna round: R97, puzzle: Exclusion 5) |  |  |  |  | 26.7 | 15.7
ACUUAUUGAGGAUAUACAUUAAAUUACAUGAGGAUCACCCAUGUUCUUCAAUGUAUAUAUGCAGAAGGCAGAAGAA [JL-ex5-4.28 Malcolm mod] (Eterna round: R97, puzzle: Exclusion 5) |  |  |  |  | 13.4 | 12.8
ACUUGUUGUCCUUGAUAUUACAUGAGGAUCACCCAUGUUAUUGUGAUUAUGAUGUGUAAGUUUGUUGCUCGUCUUAU [JR_STOV1_Sub065] (Eterna round: R97, puzzle: Sensor, turn-off variant 1) |  |  |  |  | 54.3 | 60.4
AGAAAGGAAGGAUAUACAAGAAAGCUGGGCAACGUCUCAGAACAUGAGGAUCACCCAUGUAGAAGGUCCAGGAA [Bienqura] (puzzle: Exclusion 2) |  |  | 22.6 |  |  | 
AGAAAGUCAGGAUAUCGAAGGUAGUGGAGAGGAGUGUGGUACGAGAAGGGACAUGAGGAUCACCCAUGUAGGAG [JR_Exclusion4)Sub007] (puzzle: Exclusion 4) |  |  | 31.1 |  |  | 
AGAAAUGCCCAUGGCCACAAGCUUCUUGCUUGUCUUACUACAUGAGGAUCACCCAUGUAACAUGGGCUCCUGAUAAU [Maonesra] (puzzle: Sensor v3, turn-off variant 2) |  | 11.8 | 10.1 | 11.1 |  | 
AGAAAUGCCCAUGGCCACAAGCUUUUUGCCUGUCUUACCACAUGAGGAUCACCCAUGUGACAUGGGCUCCUGAUAAU [Didilaeren] (puzzle: Sensor v3, turn-off variant 2) |  | 15.8 | 305 | 14.3 |  | 
AGAAAUGCCCGUGACCACAAGCUUUUUGCUUGUCUUACUACAUGAGGAUCACCCAUGUAACAUGGGCUCCUGACAAU [Maleisar] (puzzle: Sensor v3, turn-off variant 2) |  | 14.7 | 9.6 | 12.5 |  | 
AGAAAUGUCCAUGGCCGCAAGCUUUUUACUUGUCUUACCACAUGAGGAUCACCCAUGUGACAUGGACUCCUUAUGAU [Sensor v3, turn-off variant 2 (MOD of Oranla v.3)] (puzzle: Sensor v3, turn-off variant 2) |  | 17 | 43 | 14.8 |  | 
AGAACAUGAGGAUCACCCAUGUCGCUUUGCCUACCAAACAGGGAGGAUAUGUAGGGCGCGCACCUACAGAAGGCCCAAACGGAA [Eternabot solution 13] (Eterna round: R96, puzzle: Exclusion NG 3) | 18.5 |  |  |  | 17 | 22.5
AGAAGACAUGAGGAUCACCCAUGUAAGGAUAUUGGAGGUUAGGGAUGCUGGAGUUGGACAAGAAGGUACAGGUG [JR_Exclu1_Sub091] (puzzle: Exclusion 1) |  |  | 46.9 |  |  | 
AGAAGACAUGAGGAUCACCCAUGUAAGGAUAUUGGAGGUUAGGGAUGCUGGAGUUGGGCAAGAAGGUACAGGUG [JR_Exclu1_Sub092] (puzzle: Exclusion 1) |  | 46.9 | 49.8 | 81 |  | 
AGAAGUAGAAACCGAUCCUACAUGAGGAUCACCCAUGUAGCAAGACGUGCACGCGAAGCUCGUCAGACUACCAGAUG [salish99_TOv1_r3_017] (puzzle: Sensor v3, turn-off variant 1) |  | 297 | 108 | 313 |  | 

Sequence | apparent KD of MS2 coat protein [1] [nM] | apparent KD of MS2 coat protein [2] [nM] | apparent KD of MS2 coat protein [3] [nM] | apparent KD of MS2 coat protein [4] [nM] | apparent KD of MS2 coat protein (input ligand: FMN 200 uM) [nM] | apparent KD of MS2 coat protein (input ligand: none) [nM]
AGAAGUAGUAACCGAUCCUACAUGAGGAUCACCCAUGUAGCUAGACGUGCACGCGAAGCUCGUCAGACUACCAGAUG [salish99_TOv1_r3_023] (puzzle: Sensor v3, turn-off variant 1) |  | 298 | 273 | 212 |  | 
AGACGUCAAGUCAGGAUAUAGAGGCAAGUCCACCGCUAGAAGGGACAUGAGGAUCACCCAUGUAGGGUUUAGCU [Zainsoed] (puzzle: Brourd's mod of Exclusion 4) |  | 101 | 157 | 135 |  | 
AGAGAAUAGGUAGGAUAUCUUAAUAGAAAGAAUAGAGAAGGACCACAUGAGGAUCACCCAUGUGAAGUCUUGAGACUACAUGGU [Prohibition 31 - Jieux - Exclusion NG 1] (Eterna round: R96, puzzle: Exclusion NG 1) | 15 |  |  |  |  | 
AGAGAAUAGUCAGGAUAUGUGAAUAGAUAGAGAACAGAAGGGACACAUGAGGAUCACCCAUGUGAAGUCUUGAGGCUGCAUGGA [Prohibition 22 - Jieux - Exclusion NG 1] (Eterna round: R96, puzzle: Exclusion NG 1) | 24.1 |  |  |  | 43.9 | 39
AGAGCACGAGGAUAUACAAGGAUAACUCGCAGAUCGUCAGUACAUGAGGAUCACCCAUGUAGAAGGUGUUAGCA [Eternabot (Original) Solution 6] (Eterna round: R97, puzzle: Exclusion 2) |  |  |  |  | 41.2 | 58.9
AGAGGGCGAGGAUAUGCUAAAAGUGGUGCAGUUGUUCGUCGACUUGAGGAUCACCCAAGUAGAAGGCGCACUUC [Sointeer] (Eterna round: R97, puzzle: Exclusion 2) |  |  |  |  | 67.9 | 18.5
AGAGUACUGCGAGGAUAUACAUGAGGAUCACCCAUGUAAUAGUGUGAGGCUUUGCCUCACACAAUGUAGAAGGCGCAGUACUCA [Mat - Exclusion NG 2 - Mod of JL - D6] (Eterna round: R96, puzzle: Exclusion NG 2) | 9.81 |  |  |  | 15.7 | 17.8
AGAGUACUGCGAGGAUAUACAUGAGGAUCACCCAUGUGGUGGUGUGAGGCUUUGCCUCACACCAUGUAGAAGGCGCAGUACUCA [Mat - Exclusion NG 2 - Mod of JL - D19] (Eterna round: R96, puzzle: Exclusion NG 2) | 26.8 |  |  |  | 257 | 35.3
AGAGUGCUGCGAGGAUAUACAUGAGGAUCACCCAUGUAAAUGUGUGAGGCUUUGCCUCACACAAUGUAGAAGGCGCAGUACUCU [Mat - Exclusion NG 2 - Mod of JL - D1] (Eterna round: R96, puzzle: Exclusion NG 2) | 8.58 |  |  |  | 17.8 | 15.6
AGAGUGCUGCGAGGAUAUACAUGAGGAUCACCCAUGUAUUAGUGUGAGGCUUUGCCUCACACAAUGUAGAAGGCGCAGUACUCA [Mat - Exclusion NG 2 - Mod of JL - D8] (Eterna round: R96, puzzle: Exclusion NG 2) | 11.1 |  |  |  | 6.8 | 12.4
AGAUAGUGGUGAGGAUAUCAGAAUAGAAAGAAAUGAGAAGGCACACAUGAGGAUCACCCAUGUGAGUUCUUGAGAUUACAUGGU [Prohibition 41 - Jieux - Exclusion NG 1] (Eterna round: R96, puzzle: Exclusion NG 1) | 14.4 |  |  |  |  | 
AGAUAUAGAGGAUAUUUGCGGGAACACAUGAGGAUCACCCAUGUCGAAUAGACGCCCUAUAAAGAAGGCUAGACUG [Eternabot (L2) Solution 86] (Eterna round: R97, puzzle: Exclusion 5) |  |  |  |  | 15.7 | 32.8
AGAUCACAUGAGGAUCACCCAUGUCAGGAUAUCGUCACUGGAGCUUCGGCUCCAGUGACGAGAAGGGACAUAAU [E1/2-A1] (Eterna round: R97, puzzle: Exclusion 1) |  |  |  |  | 161 | 554
AGAUCACAUGAGGAUCACCCAUGUCAGGAUAUCGUCACUGGAGCUUCGGCUCCAGUGACGAGAAGGGAUAAUUA [E1/4-A1] (Eterna round: R97, puzzle: Exclusion 1) |  |  |  |  | 124 | 55
AGAUCACAUGAGGAUCACCCAUGUCAGGAUAUGAUACUAUGUACUUCGGUACAUAGUAUCAGAAGGGACUUAAA [Ex1-3: 70] (puzzle: Exclusion 1) |  |  | 101 |  |  | 
AGAUCACAUGAGGAUCACCCAUGUCAGGAUAUGAUACUAUGUACUUCGGUACAUAGUAUCAGAAGGGAUAUGAA [Ex1-3: 67] (puzzle: Exclusion 1) |  |  | 109 |  |  | 
AGAUCCUGAGUCAGGAUAUAGAGACGGUAGUCGGGCUAGAAGGGACAUGAGGAUCACCCAUGUGGGUUCGGGCC [Zarareso] (puzzle: Brourd's mod of Exclusion 4) |  |  | 12.8 |  |  | 
